Laboratory results: the RNAGym collection of RNA variant scans (doi:10.1073/pnas.2313332121)

B1: TPR t1 (parent)
chain: GACCAAUCUGCCCUCAGAGCUCGAGAACAUCUUCGGAUGCAGAGGAGGCAGGCUUCGGUGGCGCGAUAGCGCCAACGUCCUCAACCUCCAAUGCAUCCCACCACAUGAUGAUGCCUGAAGAGCCUUGGUUUUUUG

Variants of: B1
Experiment: polymerase ribozyme fitness, log enrichment relative to wild type (log ratio); higher = more active; in vitro selection for triplet polymerase activity
Procedure, shortened: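 Mutant libraries of each subunit of a heterodimeric triplet polymerase ribozyme were built by PCR and transcribed. Each library went through one round of in vitro selection in triplicate: annealing with biotinylated primer, partner subunit and triplets, frozen incubation at −7 °C, gel excision of extended constructs, streptavidin-bead capture and RT-PCR. Input and output libraries were Illumina-sequenced; only genotypes with ≥10 input reads and ≥1 read per output were kept. Fitness is log2(genotype enrichment/wild-type enrichment), using inverse-variance-weighted replicate averages.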

| Variant | polymerase ribozyme fitness (log ratio) |
| --- | --- |
| A37U C72U U96A | -0.172 |
| U38G A91C | -2.88 |
| G36U C40A | -3.53 |
| G36U C73U G107C | -6.17 |
| G39A G44A G77A | -2.46 |
| A37U A50G | -0.867 |
| A37U G47A A68G C80A | -6.59 |
| G39A C72A A91U C94A | -2.84 |
| G35U G71U | -5.03 |
| G39A C70G | -3.16 |
| A37G C104G | -6.69 |
| G36U G51C G69U C115U | -3.32 |
| A37U C64U C88U C102A | -2.71 |
| G36C G44A G71A A75G C89A | -3.61 |
| G39A G48C A50U C94U C114G | -4.57 |
| A37U A43C G71U C79U U112A U116G U134C | -6.04 |
| U38G G61U | -0.532 |
| G36A G42A C70U C72U | -4.5 |
| A37C U54A C64U U109A | -6.92 |
| U38G G52U | -2.27 |
| A37U A75U G120C | 1.14 |
| G35U G69U C123A C124A | -1 |
| G36A U125A | -1.27 |
| U38C G45A U54A A83C G120U | -0.856 |

| Variant | polymerase ribozyme fitness (log ratio) |
| --- | --- |
| G36U C123U | 0.205 |
| G39A G61C C72U G117A | -1.82 |
| G36A G69A | -3.69 |
| A37U G60C C62U | -2.01 |
| A37C G60U C82U A83U U87A | -2.34 |
| U38G C79G | -2.67 |
| G35C G120U | -3.99 |
| G35C C79U C104A C124A | -5.25 |
| G36A C53A U54G G120C | 0.74 |
| G36U G57A | -2.09 |
| G39A C64U C124A | 1.06 |
| G35A U78G | -4.14 |
| G39A G42A | -2.67 |
| G36C G42U C56G A74C G107U U112A C114A | -7.54 |
| U38A G120A | -0.255 |
| U38C C40U A46U U55A C73U | -3.3 |
| A37U | -0.355 |
| A37G | -0.185 |
| A37C | -0.431 |
| G39A G63C C72A | -4.54 |
| G39A C72G | -0.976 |
| G36U C86G | -2.22 |
| A37U C40U A50C G51C A74U U109A U131G | -5.36 |
| A37U A90C U96A | -0.653 |

| Variant | polymerase ribozyme fitness (log ratio) |
| --- | --- |
| A37U A50U C94U | -1.81 |
| A37G C76U | -1.3 |
| U38A C73G C101A A119U A121U G122U | -2.99 |
| U38C G71A | -1.37 |
| U38G A83G | -1.98 |
| U38G C88U | -0.426 |
| U38A G63U U131A | -2.72 |
| A37U G51U G60C C85U U96A G113A | -4.21 |
| G39A C49U U78C | -1.72 |
| U38C A43U | -2.21 |
| G36U A111U | -3.05 |
| G39A C40G | -1.68 |
| A37G C114A | -1.28 |
| A37U G39A | -1.34 |
| G39A G44A C62G U78C | -6.69 |
| A37U C76U | -0.3 |
| G35C C98A A103C C123U | -5.49 |
| A37C C53U C123U | 0.761 |
| G36C G60A C98U | -2.39 |
| G36U G47C G117U | -6.43 |
| G36U C72G C124U | -0.0425 |
| G36C U55A U131A | -0.527 |
| G36C G60U A118U | -0.591 |
| A37G U132C | -1.86 |

| Variant | polymerase ribozyme fitness (log ratio) |
| --- | --- |
| G39A A66U C123U | -0.175 |
| G39A G51U A83G A95C | -3.53 |
| U38A G61U | -0.881 |
| A37U A43C | -1.99 |
| A37C G63U G122U | -2.81 |
| G39A C40A G45U | -4.88 |
| A37G G52A | -1.1 |
| G39A C64U | 0.0887 |
| A37G G117C | -2.52 |
| A37C G45C C72U C104G C115G | -7.48 |
| G36U C115U | -2.01 |
| A37U G44A | -2.19 |
| G35C C53U C56G G120A | -2.61 |
| A37C C64U C115G | -1.35 |
| G36U G117U | -3.26 |
| G35C G39U | -5.8 |
| G36C A46G G63U C85U C114U | -5.92 |
| A37C G44A C53U C104U | -1.64 |
| G36A G44A G77U A84U | -2.98 |
| A37C A103C | -4.98 |
| U38A A111U | -4.52 |
| G36C C88A | -2.1 |
| A37C G44A C53A G63C C124A | -3.21 |
| A37U G77C | -1.31 |

| Variant | polymerase ribozyme fitness (log ratio) |
| --- | --- |
| U38G C49U C80G | -4.88 |
| G35U G63U C101A C115U | -5.79 |
| G35U G47A | -5.64 |
| G36A U59A C89G | -3.6 |
| G39A C49U G57A A84U C97U G120C C124U G128U U132A | -2.74 |
| G36C A100U A111G | -1.04 |
| G36A G71U U78A | -1.53 |
| G36U G60U A111U | -2.87 |
| G36U C40U A43C A46U G48C | -5.24 |
| A37U G61U A83G C88A | -2.28 |
| G36A G71A C94A | -5.5 |
| U38G G69A U112A | -4.05 |
| G35C U81A U109A C114A C123G | -5.16 |
| A37G C73G U109A | -7.2 |
| G36U G39U G44A | -4.17 |
| G35U C123U | -2.85 |
| G35U C123A | -3.61 |
| G36A G42A C72U | -4.34 |
| G35U C40U G61A C124U | -4.87 |
| A37G A121C | 2.11 |
| G36A C124U | 0.816 |
| G36A C56A | -1.03 |
| G36U C53U G61A U96G | -2.34 |
| A37C G44A A46C G47U U59C | -6.19 |

| Variant | polymerase ribozyme fitness (log ratio) |
| --- | --- |
| U38C G44U A91U G120U | -2.19 |
| U38G U54A | -0.658 |
| U38G U54G | -0.407 |
| U38A U96G U112A G128A | -2.89 |
| A37C C104A | -1.22 |
| G35A G113A | -4.16 |
| G36U U125A U133A | -2.46 |
| G36C C49G C102A U125A | -4.36 |
| G36A A84C G117A | -2.24 |
| G36C G52C C70A U106A | -2.71 |
| G36C C104U | -1.1 |
| A37G C49U C82A U87C U106G U133G | -2.13 |
| A37G C89A C102A C124U | -3.6 |
| A37U G52A C56A G110C A118U | -5.47 |
| G39A G51A | -2.96 |
| A37G C53A C56A A90U A91C G113C | -2.55 |
| G35U C70U C72U G120C | -6.33 |
| A37U C49U C64U C114U | -3.02 |
| G36U C70G C89U | -5.64 |
| G36U U106A G127C | -1.83 |
| U38A C89G C114A C123A U131G | -4.1 |
| A37G C88A G113U | -5.31 |
| G36U G63U C80U A84C | -4.1 |
| G36U U116A | -4.2 |

| Variant | polymerase ribozyme fitness (log ratio) |
| --- | --- |
| G39A G63A | -1 |
| A37U A46U | -2.98 |
| A37G G69U | -1.08 |
| G39A G61U | -0.116 |
| G39A A95G C115A | -0.556 |
| A37G G60U C80A | -5.24 |
| G36A G48U G63U C79G | -5.18 |
| U38G G39U U54G G69U U87A G113C | -4.25 |
| A37G C72G C73U A74U | -6.02 |
| U38G U78G | -0.583 |
| A37G G42A C79G C104U | -4.86 |
| U38A C101U G117C | -4.18 |
| G39A C79A C114G A121C | -4.29 |
| G36U G51C G69U | -2.55 |
| A37U C104U U116C | -0.911 |
| G36C | -1.27 |
| G36A | -0.858 |
| G36U | -1.06 |
| A37G U55A C73U A83C A90U U125A | -2.61 |
| A37C U67C U81C C123A | -5.95 |
| A37C U55C | -1.17 |
| G36A A121U G128A | 0.119 |
| G36C G113U U129A | -4.27 |
